Measurements as given in the RNAGym collection of RNA variant scans (doi:10.7554/elife.90254).

B1: LINE1-full (parent)
chain: UACGUAGGUGGUUUUCCCCUGAUAGUGCUAAGGGGGCCUGGAAGUUUGGACUGGGCAGAGCUCAACACAGCGUGGCAAAGUGGCUGUGGCUAGACUGCCUCUCUGGAUUCCUCGUCACUCAGCAGGGCAUCUCUGAGAGAAAUGCC

Variants of: B1
Assay: self-cleavage, relative activity (ratio to wild type); higher = more cleavage; in vitro, sequencing; the parent is a self-cleaving ribozyme

Variant | self-cleavage
U39C C145U | 0.99
A77U A138G | 1.75
U52C U73A | 1.21
A129U U130C | 1.49
G48A U130C | 1.53
U115C U143C | 1.61
C3U A22G | 0.95
G60C U102C | 0.06
C99U U115A | 0.33
A107U A124G | 1.29
G34U U85G | 0.09
A24G C51U | 1.68
U109C G137A | 1.45
U13A U109A | 0.28
U13A U46C | 0.77
A2U A57C | 0.16
U62C A124U | 0.05
U15C C111U | 1.47
A77U C145A | 1.75
U15C U143C | 1.29
A22U A69U | 0.12
C19U G32A | 0.87
U15C C123U | 1.72
U26A C145A | 1.07

Variant | self-cleavage
A69G U100C | 0.98
A136G A140U | 1.29
G60A A67G | 0.08
A2U G122A | 0.79
A77U C110U | 0.94
C56A G106A | 0.08
U52C A136G | 2.9
A22U U96G | 0.53
G44C | 1.22
A59U G127A | 0.65
G53A U134A | 1.23
U47A U132A | 1.34
A92U U104A | 0.44
U15G U46C | 0.59
C16U U100A | 0.32
C84A A138G | 0.05
A22G A42U | 1.31
U91G A121G | 0.33
U14G U39C | 1.25
G80A U112C | 1.43
C28A U47C | 0.63
A77U U119A | 1.51
A59U A67U | 0.1
A121U G144A | 1.86

Variant | self-cleavage
A117G U119C | 1.47
U14A A77C | 0.88
A43G C110U | 1.8
A94U U112G | 0.42
C19U A124U | 0.76
G106A U119A | 0.75
U73C U112A | 1.41
A57C G127A | 0.03
A92G U104A | 0.06
G54A U81A | 0.78
U112C A121U | 1.09
C18A G58U | 0.07
C120U A136G | 1.39
U13C A124C | 1.67
A57U G60A | 0.04
C37U C56U | 0.11
C95U A117U | 0.21
U9C A57U | 0.24
G48A A50G | 0.53
U39C G55A | 0.08
G36A A78G | 1.32
U5G A67U | 0.31
G10A U143C | 1.4
U45A U143A | 1.21

Variant | self-cleavage
A6G C113A | 1.18
U29C A57G | 0.98
U85A U104C | 0.13
C56U | 0.11
C18U G25A | 0.39
A6U A138G | 1.15
U73A U87A | 0.07
A43G U91A | 0.89
G89U C123G | 0.07
A24G A79G | 0.95
A92U A107C | 0.9
U81C U91A | 0.56
G82A A142G | 2.1
U13A G34A | 1.13
G83C U132A | 0.73
G55A A92G | 0.03
U73C A136G | 1.64
A31U U102C | 1.05
A50G U62G | 0.1
G25C U102C | 1.31
U46C U62C | 0.02
C90U | 0.03
A57G A79C | 0.8
U12C U52C | 1.11

Variant | self-cleavage
U87C U96A | 0.09
U29G C99A | 0.42
A31G U104C | 1.91
A42G C71G | 0.35
G4A C133A | 0.79
U15C A67U | 0.17
G74A A140U | 1.31
A57G A59G | 0.62
A2G A50U | 0.18
A77U G122A | 0.36
U73A A94C | 0.05
A65U | 0.17
A65G C128U | 0.05
A50G G53A | 1.09
U39G C123U | 0
U23C C111U | 1.34
A43G G75U | 0.99
C17U U47A | 1.34
U15C G58A | 0.11
A140G C145U | 0.62
U96C U102C | 0.12
A57G U102C | 0.43
U108C U134A | 2.21
U47A U104C | 1.54

Variant | self-cleavage
U46A U85A | 0.06
A64G C113U | 0.13
A50G C95U | 0.03
U5A U62A | 0
U14C U143C | 1.02
G114C A142G | 1.78
G58A A129G | 0.03
U45C A79C | 1.23
C18G | 1.36
C63U U132C | 0.35
G34U U73A | 2.36
U52A U132A | 1.18
A50G A117U | 0.91
G10A A141G | 0.94
A43U C61U | 0.02
G89A A121G | 0.09
G93U U109C | 0.02
G127A | 1.16
U12G U85A | 0.22
U12G U85G | 0.21
A107U U132A | 1.88
U104A U112A | 1.4
U13C U109A | 1.11
U119A U132C | 1.96

Variant | self-cleavage
G21A U134A | 1.17
G105U U108C | 1.98
G105U U108A | 1.12
G10A G35A | 0.92
U13A U134G | 1.34
A30G A31G | 1.15
C128U U132C | 1.37
U20G A22G | 0.41
A30C U52C | 0.33
A50C A64G | 0.63
A22G G80U | 1
U1A A64G | 0.64
U5C A50G | 1.01
A67C U104G | 0.14
G7U C123G | 1.13
U52C G144A | 1.73
U12A A92G | 0
C133U A142G | 1.14
U20C U46G | 1.52
U85C U104A | 0.08
C76G | 2.01
G34A U102C | 1.43
C68U U143C | 0.22
A59U U112C | 1.51

Variant | self-cleavage
A138G A141G | 1.25
G89A U91C | 0.05
U108A | 1.24
U52A C113A | 1.24
U100A U108A | 0.97
U29A A138G | 1.11
U47C U104A | 1.23
U52A C131U | 1.46
A31U G144U | 1.03
U23C A64G | 0.35
U45C A138G | 1.47
U108C U132C | 1.83
U73G A124G | 0.78
U26C U132A | 1.73
G34U A117G | 2
U26C A79G | 1.01
A79G G135A | 1.38
U45G U85G | 0.28
U26C U115C | 1.84
U115A A121U | 1.5
A2G G72A | 1.15
A22G U108A | 1.74
G10A U73A | 1.55
C66A | 0.05

Variant | self-cleavage
G41A A57U | 0.11
U81C U96C | 0.2
C17U U46A | 0.72
A31U G32A | 1.56
C61U U73G | 0.16
U96A G114A | 0.06
U14C G36C | 1.41
U20C U29A | 0.62
A77C U96C | 0.09
U13G U115C | 1.39
G49A A59G | 0.02
U9C G25U | 0.96
U52G A64U | 0.7
G34A A77G | 1.88
U52C C71A | 0.13
A57G U100C | 1.99
U20C U91A | 0.55
U87A G126U | 0.08
G8A U85C | 0.25
U13C G48U | 0.91
A79G U108A | 1.17
U73A G97A | 0.11
G32U G83U | 0.6
U23C U62C | 0.04

Variant | self-cleavage
U12A A117U | 1.36
G60A C99A | 0.05
U96A C116U | 0.11
A43G U102C | 1.13
A2G U73A | 0.95
C18U G144A | 0.75
G11A U112C | 1.37
A65U A94G | 0.1
G25A G54C | 1.02
U102C G137A | 1.8
C110A A141G | 1.84
A6G U112C | 0.96
G93A A142G | 0.04
U81C A117U | 1.56
C128U A141U | 1.62
U45C U119A | 1.3
G11C U20A | 0.54
U45C U81A | 2.03
A31U A77U | 0.96
G32C U100C | 2.13
A57U A59U | 0.07
G55A A65G | 0.03
U14C A94U | 0.29
G34A U108G | 1.55

Variant | self-cleavage
C71U U87C | 0.04
U87C U134G | 0.31
A42U C120U | 0.4
A69U U91C | 0.06
A50U A64G | 0.16
A6G U62G | 0.11
U14C U112G | 1.75
U115C U130C | 2.03
A22G A141G | 1.27
A69U U102C | 0.06
A43U A78G | 0.61
A22G A129U | 0.67
A2C G4U | 1.34
G27A U29C | 0.79
G75A U104A | 0.87
U62C G126C | 0.01
C103U U119C | 1.7
A43G G125U | 1.02
A43U A141G | 1.38
U12G A77C | 0.69
A6G G93A | 0.14
G11A U104C | 1.59
U62C C66A | 0.02
C17U U87C | 0.23

Variant | self-cleavage
A50G G122U | 1.09
A31G G44A | 2.09
A42G G74A | 0.8
A124U G127U | 1.62
U13G C99U | 0.69
U14A C90U | 0.04
G36A A136G | 1.43
U1A U104A | 1.2
C123U U132C | 1.53
U62A U119A | 0.04
U45C C145U | 1.5
A30U G49U | 0.85
A31C A59G | 0.26
C51U U96C | 0.12
C110G A141G | 1.37
U9C U26A | 1.14
A6G A79G | 0.8
A2G U115A | 1.08
A31U U91C | 0.38
C38A U130C | 1.41
A59U A64G | 0.09
A57G A124C | 0.91
A43G U132C | 1.1
U100C G127A | 1.9

Variant | self-cleavage
A22G U47C | 1.18
G93U U115C | 0.04
U13G A59G | 0.12
U29A G74A | 0.59
A6G C146U | 1.05
G10U A138U | 1
A69G U73A | 0.28
U20G U91A | 0.47
A22U G106U | 1.72
U12C A129C | 1.99
U12C U45G | 1.35
A30G G36C | 1.25
U14C U62A | 0.1
U5C U45A | 0.74
C76U A79G | 2.1
A107G G127C | 1.72
C103A U130C | 1.9
G41U C103A | 1.11
U15C C145U | 1.47
A59G A124U | 0.14
G10U C61U | 0.05
C17U A22U | 1.21
U29C U62A | 0.03
G41A U132C | 1.25

Variant | self-cleavage
G60C U109C | 0.1
G34A A138G | 1.68
U13C U26C | 1.01
U46C U73A | 1.68
U20A G86A | 0.18
U26C U81A | 1.68
A117G U130C | 1.42
A50U A65G | 0.06
C71G A77G | 0.4
A24G A77U | 1.04
C38A U104C | 0.82
U112C U115A | 1.39
G54A | 0.61
G54U | 0.67
C3U A67C | 0.12
A43G U81G | 1.12
A69G C71U | 0.1
G53U U91C | 0.54
C38G U52A | 1.04
C17U U26A | 0.85
U29C G122A | 1.68
U12C U46A | 1.24
